Assay: immunoblot, N-terminal Flag vs C-terminal epitopes, ldlD cells
Details: glycan lost; control: WT Ser49-β1AR, ldlD cells with Gal/GalNAc

Row | Substance | other: proteolytic processing
1 | β1-adrenergic receptor (β1AR): N15A | no change
2 | β1-adrenergic receptor (β1AR): ldlD cells without Gal/GalNAc | increases

Source: PMC5554155
